Measurements published in patent US20070197442A1, “Methods for the Treatment of Macular Degeneration and Related Eye Conditions” (priority 2006, published 2007).

Tests used:
[1] = target: T1, LCAT (Homo sapiens, UniProt P04180); assay: in vitro LCAT activation; type: biochemical; conditions: in the presence of lipids; % of the activity of native apoA-I
T1 sequence (P04180 25-440): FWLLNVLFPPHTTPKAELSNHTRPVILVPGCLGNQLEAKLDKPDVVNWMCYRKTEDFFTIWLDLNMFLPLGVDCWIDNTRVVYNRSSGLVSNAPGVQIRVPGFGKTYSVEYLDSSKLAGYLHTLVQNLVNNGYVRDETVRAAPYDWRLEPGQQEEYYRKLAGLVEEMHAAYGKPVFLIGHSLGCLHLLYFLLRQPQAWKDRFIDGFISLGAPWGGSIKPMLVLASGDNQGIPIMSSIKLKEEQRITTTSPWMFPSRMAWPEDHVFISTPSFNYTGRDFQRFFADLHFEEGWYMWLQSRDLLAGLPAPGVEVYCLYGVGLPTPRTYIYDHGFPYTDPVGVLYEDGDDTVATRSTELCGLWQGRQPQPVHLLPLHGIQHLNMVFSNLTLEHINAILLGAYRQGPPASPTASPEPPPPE
Excerpt: ESP24218 (SEQ ID NO:1), the peptide component of the peptide/phospholipid complex, is a 22 amino acid peptide having a helical structure and amphipathic properties designed based on the helical repeats of apoA-I. In the presence of lipids, this peptide approaches 100% of the activity of native apoA-I in in vitro LCAT activation. The peptide can be prepared by chemical synthesis using any technique known to those of skill in the art. The peptide can be prepared by the synthetic techniques described in U.S. Pat. No. 6,004,925, incorporated herein by reference in its entirety for all purposes. Typically, ESP24218 (SEQ ID NO:1) is produced by a stepwise chemical synthesis on a solid support. In preferable embodiments, all amino acids in the peptide are natural L-α-amino acids in configuration. Generally, the amino and carboxyl termini of the peptide are free. The amino acid sequence of ESP24218 (SEQ ID NO:1) is shown in FIG. 1, which is as follows: H-[…]OH. The phospholipid can be obtained from any source known to those of skill in the art. […]

[2] = system: apo E expression in HepG2 cells; conditions: cited from earlier work

Substance | activity in in vitro LCAT activation relative to native apoA-I [1] [%] | increase of expression of apo E [2]
H-Pro-Val-Leu-Asp-Leu-Phe-Arg-Glu-Leu-Leu-Asn-Glu-Leu-Leu-Glu-Ala-Leu-Lys-Gln-Lys-Leu-Lys-OH [ESP24218] | ~100 | 
Thyroid hormone |  | three
